Measurements taken from US20250145697A1 (WASHINGTON UNIVERSITY, published 2025).
Values belong to the binder of their own block, whether it stands above or below them.

Experiments:
[1] = target: T1, recombinant alipidated human ApoE2 (human, UniProt P02649 19-317); test: direct ELISA on coated recombinant alipidated ApoE (0.5 ug/ml)
T1 construct: mature; full length recombinant protein made in E. coli or bought
How it was run: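 Plates coated overnight with full-length recombinant alipidated ApoE (0.5 μg/ml), from E. coli or a commercial source, were washed, blocked and incubated with anti-ApoE antibody. Binding was detected with goat anti-mouse IgG-HRP to generate dose-response curves.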

[2] = target: T2, heat-induced aggregates of ApoE2 (human, UniProt P02649 19-317); test: ELISA: pellet of heat-aggregated ApoE2 coated at 0.5 ug/ml, antibody titrated, HRP goat anti-mouse IgG, OD650
T2 construct: mature; aggregated state of the recombinant protein; also called heat treated ApoE2
T2 sequence (P02649 19-317 R176C): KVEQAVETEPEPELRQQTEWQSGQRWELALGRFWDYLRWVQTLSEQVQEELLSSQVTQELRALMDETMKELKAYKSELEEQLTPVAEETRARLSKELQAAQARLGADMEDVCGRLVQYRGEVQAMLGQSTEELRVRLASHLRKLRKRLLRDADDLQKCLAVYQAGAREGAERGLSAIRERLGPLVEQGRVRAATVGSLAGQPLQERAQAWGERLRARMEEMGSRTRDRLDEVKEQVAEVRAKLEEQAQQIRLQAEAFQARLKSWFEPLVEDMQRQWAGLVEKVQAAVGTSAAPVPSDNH
Experimental: (§1) The aggregated ApoE was induced by incubating ApoE at 1 mg/ml concentration at 40° C. for 24 hours. The aggregates then were recovered in the pellet fraction following ultracentrifugation at 186,000 g for 1 hour. For ELISA, the untreated ApoE or heat-induced aggregates of ApoE were coated directly to ELISA plates at 0.5 μg/ml overnight at 4° C. After three washes with PBS, the wells were blocked with 1% BSA-PBS for 1 hour at room temperature with shaking at 500 rpm. The blocked wells were washed once with PBS and subsequently loaded with antibodies at serial concentrations (starting at 100 nM with 5-fold dilutions thereafter). Bound antibodies were detected with HRP-labeled goat anti-mouse IgG (Jackson Immunoresearch) and visualized with TMB substrate at OD₆₅₀ (reaction stopped with BioFX stop solution).

[3] = target: T3, recombinant alipidated human ApoE3 (human, UniProt P02649 19-317); test: ELISA: untreated ApoE3 coated at 0.5 ug/ml, antibody titrated, HRP goat anti-mouse IgG, OD650
T3 construct: mature; full length recombinant protein made in E. coli or bought
Experimental: as §1
Target sequence in this assay (P02649 19-317): as the sequence (P02649 19-317 R176C) above, with C158R counted along it

[4] = target: T4, heat-induced aggregates of ApoE4 (human, UniProt P02649 19-317); test: ELISA: ApoE4 incubated at 40 C for 24 hr on the plate, antibody titrated, OD650
T4 construct: mature; aggregated state of the recombinant protein; also called ApoE4 incubated at 40 C for 24 hr; heat-treated ApoE4
Experimental: (§2) 1: untreated ApoE4. 2: ApoE4 that has been incubated at 40° C. for 24 hr. Supernatant(S) and pellet (P) from ultracentrifugation were resolved on SDS-PAGE and stained by Coomassie blue. (D) Binding of HJ156 to different preparations of ApoE4 loaded at the same concentration on the ELISA plate. Sup of untreated: Supernatant fraction of untreated ApoE4 from ultracentrifugation. Sup/Pel of 24h 40C: Supernatant/pellet fraction of ApoE4 incubated at 40° C. for 24 hour. (E) Binding of HJ156 to untreated and 40° C. incubated ApoE4 with and without denaturation by 1% SDS or 4M guanidine HCl.
(§3) In order to test whether HJ151 and HJ156 bind to some form of ApoE in the brain, unfixed frozen brain sections from APPPS1/APOE4 or APPPS1/EKO mice using HJ151 and HJ156 (FIG. 38A). The presence of Aβ plaques was confirmed with Aβ immunostaining using anti-Aβ antibody HJ3.4 on the sections from the same brain. […] Next, the ability of HJ156 to bind to an aggregated form of ApoE induced by incubation at 40° C. was queried. The binding of untreated ApoE to HJ151, HJ153 or HJ156 was compared to the binding of ApoE incubated at 40° C. to HJ151, HJ153 or HJ156. HJ153 bound to untreated ApoE or ApoE incubated at 40° C. similarly while HJ151 and HJ156 preferentially bound to ApoE incubated at 40° C. (FIG. 38B). […] Solubilization of the ApoE aggregates reduced their binding to HJ156. […]

[5] = target: T3, recombinant alipidated human ApoE3; test: ELISA, plate coated with 0.5 ug/ml recombinant apoE3, HRP goat anti-mouse detection, OD450
Experimental: ELISA plates were coated with 0.5 μg/ml of recombinant apoE2 (square), apoE3 (open circle), or apoE4 (closed circle). Then different concentrations of (A) HJ151, (B) HJ153, (C) HJ154, or (D) HJ156 were loaded on the plates. Horse-radish peroxidase labeled goat anti-mouse secondary antibodies were used to detect binding. […] HJ151 is specific for ApoE4 and HJ156 binds only ApoE3 and ApoE4. FIG. 5E-H are graphs depicting surface plasmon resonance profiles for various antibodies. Anti-ApoE antibodies were serially diluted 3-fold (starting at 100 nM for HJ153 (E), and 1000 nM for HJ151 (F), and […] (G)) for detection of binding to biotinylated-recombinant apoE4 captured on a streptavidin chip. Samples were injected at a flow rate of 30 μl/minute. (H) Apparent KD values of HJ151, HJ153 and HJ156 were calculated based on the SPR experiment.
ELISA plates were coated with 0.5 μg/ml of recombinant apoE2, apoE3, or apoE4. Then different concentrations of HJ151 (FIG. 5A), HJ153 (FIG. 5B), HJ154 (FIG. 5C), or HJ156 (FIG. 5D) were loaded on the plates. Horse-radish peroxidase labeled goat anti-mouse secondary antibodies were used to detect binding. […] HJ151 is specific for ApoE4 and HJ156 binds only ApoE3 and ApoE4. Surface plasmon resonance profiles for various antibodies was also performed.

[6] = target: T4, heat-induced aggregates of ApoE4; test: ELISA: pellet fraction of ApoE4 incubated at 40 C for 24 h loaded at the same concentration on the plate, HJ156 titrated, OD650
[7] = target: T4, heat-induced aggregates of ApoE4; test: ELISA: ApoE4 incubated at 40 C for 24 h, no denaturant, on the plate, HJ156 titrated, OD650
Experimental: as §2, §3
Target sequence in this assay (P02649 19-317 C130R): as the sequence (P02649 19-317 R176C) above, with C112R, C158R counted along it

[8] = target: T4, heat-induced aggregates of ApoE4; test: ELISA: total ApoE4 incubated at 40 C for 24 h loaded on the plate, HJ156 titrated, OD650
Target sequence in this assay (P02649 19-317 C130R): as the sequence (P02649 19-317 R176C) above, with C112R, C158R counted along it

T1 sequence (P02649 19-317 R176C): as the sequence (P02649 19-317 R176C) above

EC50 [1]: 0.25 nM
EC50 (read off the curve) [2]: 0.16 to 0.2 nM
EC50 (read off the curve) [3]: ~0.5 nM
B1: HJ154 (antibody, V domains shown)
VH: QVQLQQPGTEFVMSGASVMLSCKASGYIFTNYWLHWVKQRPGHGLEWIGEIDPSDSYSICNDNFKGKSTLTVDKSSSTAYMQLSSLTSEDSAVYYCAGSLGRVGLAYWGQGTLVTVST
VL: QIVLTQSPAIMSASPGEKVTMSCSASSSVSNMYWYQQKPGSSPKSWIYRTSNLASGVPARFSGSGSGTSYSLTISNMEAEDAATYYCQHYQNYPLTFGAGTKLELKR
notes: murine monoclonal antibody from hybridoma; also called HJ154B (biotinylated)

EC50 (read off the curve) [4]: ~0.2 nM
B2: HJ151 (antibody, V domains shown)
VH: QVQLQQSGAELVRPGASVTLSCKASGYTFTDYEMHWVKQTPVHGLEWIGVIDPEKGGTAYNQKFKGKAILTADKSSSTAYMDLRSLTSEDSAVYYCLKDSWGQGTTLTVSS
VL: DVLMTQTPLSLPVSLGDQASISCRSSQTIVHSDGNTYLEWYLQKPGQSPKLLIYKVSNRFSGVPDRFSGSGSGTYFTLKISRVEAEDLGVYYCFQGSHVPCTFGGGTKLEIKR
notes: murine monoclonal antibody from hybridoma; also called HJ151B (biotinylated)

EC50 (read off the curve) [5]: ~0.9 nM
EC50 (read off the curve) [6]: ~0.1 nM
EC50 (read off the curve) [7]: ~0.1 nM
EC50 (read off the curve) [8]: ~0.1 nM
B3: HJ156 (antibody, V domains shown)
VH: QVQLQQSGPELVKPGASVKISCKASGYIFTDYYINWVKRRPGQGLEWIGWIFPGSGVSYYNEQFKGKATLTVDKPSNTAYIFLSRLTSEDSAVYFCARYYSSSPFAYWGQGTLVTVSA
VL: DVLMTQTPLSLPVSLGDQASISCRSSQNIIHSNGNTYLEWFLQRPGQSPELLIYKVSNRFSGVPDRFSGSGSGTDFTLKISRVEAEDLGVYYCFQGSHVPYTFGGGTKLEIKR
notes: murine monoclonal antibody from hybridoma; also called HJ156B (biotinylated)
